Data set [1] deals with full-length C. elegans TRPML1 (CUP-5), WT (C. elegans). The data set is described as follows: cryo-EM structure.
The data set “crystal structure” deals with the molecule itself. Briefly: crystal structure.
Data set [2] has as its target T1, human TRPML1 protein (SDS-PAGE, data not shown) (human), Q9GZU1.
T1 chain: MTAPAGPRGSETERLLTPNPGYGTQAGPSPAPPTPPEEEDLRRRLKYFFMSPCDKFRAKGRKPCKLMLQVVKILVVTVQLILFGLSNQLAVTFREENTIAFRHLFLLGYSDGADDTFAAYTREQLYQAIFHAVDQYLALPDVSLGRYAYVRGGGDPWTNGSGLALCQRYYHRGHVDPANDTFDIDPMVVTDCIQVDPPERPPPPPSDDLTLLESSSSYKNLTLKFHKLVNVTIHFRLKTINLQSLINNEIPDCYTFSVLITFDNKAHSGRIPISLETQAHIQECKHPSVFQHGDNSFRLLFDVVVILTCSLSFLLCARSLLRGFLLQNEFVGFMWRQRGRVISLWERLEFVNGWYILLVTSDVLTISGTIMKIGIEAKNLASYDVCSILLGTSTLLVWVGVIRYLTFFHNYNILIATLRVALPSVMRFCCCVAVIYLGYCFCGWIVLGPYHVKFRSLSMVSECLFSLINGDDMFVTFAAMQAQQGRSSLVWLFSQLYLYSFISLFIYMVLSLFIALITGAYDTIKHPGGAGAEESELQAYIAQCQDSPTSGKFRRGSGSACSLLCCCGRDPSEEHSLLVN
Briefly: reducing SDS-PAGE. As to conditions: remark: other sources report otherwise.

Turning to “full-length C. elegans TRPML1 (CUP-5), WT (natural protein)”, the stoichiometry N (usually the number of molecules, sites or subunits per partner or assembly) in data set [1] is 4.

B1: human TRPML1 I-II linker (G84-S296) (domain or fragment, UniProt Q9GZU1 84-296, looked up)
chain: GLSNQLAVTFREENTIAFRHLFLLGYSDGADDTFAAYTREQLYQAIFHAVDQYLALPDVSLGRYAYVRGGGDPWTNGSGLALCQRYYHRGHVDPANDTFDIDPMVVTDCIQVDPPERPPPPPSDDLTLLESSSSYKNLTLKFHKLVNVTIHFRLKTINLQSLINNEIPDCYTFSVLITFDNKAHSGRIPISLETQAHIQECKHPSVFQHGDNS
Take B1: in “crystal structure”, the “stoichiometry N” value worked out at 4.

B2: human TRPML1 protein (SDS-PAGE, data not shown), Q9GZU1 1-580 (natural protein)
chain: MTAPAGPRGSETERLLTPNPGYGTQAGPSPAPPTPPEEEDLRRRLKYFFMSPCDKFRAKGRKPCKLMLQVVKILVVTVQLILFGLSNQLAVTFREENTIAFRHLFLLGYSDGADDTFAAYTREQLYQAIFHAVDQYLALPDVSLGRYAYVRGGGDPWTNGSGLALCQRYYHRGHVDPANDTFDIDPMVVTDCIQVDPPERPPPPPSDDLTLLESSSSYKNLTLKFHKLVNVTIHFRLKTINLQSLINNEIPDCYTFSVLITFDNKAHSGRIPISLETQAHIQECKHPSVFQHGDNSFRLLFDVVVILTCSLSFLLCARSLLRGFLLQNEFVGFMWRQRGRVISLWERLEFVNGWYILLVTSDVLTISGTIMKIGIEAKNLASYDVCSILLGTSTLLVWVGVIRYLTFFHNYNILIATLRVALPSVMRFCCCVAVIYLGYCFCGWIVLGPYHVKFRSLSMVSECLFSLINGDDMFVTFAAMQAQQGRSSLVWLFSQLYLYSFISLFIYMVLSLFIALITGAYDTIKHPGGAGAEESELQAYIAQCQDSPTSGKFRRGSGSACSLLCCCGRDPSEEHSLLVN
Consider B2, for which the stoichiometry N in data set [2] came out at 4.

The values are drawn from PMC5336481 (Nature structural & molecular biology, 2017).
